In the supplement of paper PMC9732359:
± gives the uncertainty stated by the source.

Test: protein stability index of a GFP-peptide fusion (yeast GPS) (PSI 1-4); higher = more stable; sorted into four equal gates, so the index is relative within each strain
Outline: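 Peptides tiling yeast proteins in 17-residue segments were fused downstream of GFP, with Cherry expressed from the same plasmid. As a pooled library in yeast, mid-log cultures grown in leucine-free medium were sorted into four equal gates by GFP/Cherry fluorescence ratio. Gate plasmids were PCR-amplified and Illumina-sequenced, and barcodes linked reads to strains. Each peptide received a protein stability index equal to the sum of each gate's read frequency times its gate number.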

Row | Sequence | protein stability index (doa10∆) | protein stability index (pdr5∆) | protein stability index (san1∆) | protein stability index (ubr1∆)
1 | KINTRGAEDPKVLINDQ [SWI1] | 3.02 ± 0.2 | 3.34 ± 0.13 | 3.26 ± 0.14 | 3.11 ± 0.054
2 | VKKGPVRLPTKVLKIST [RPS20] | 2.22 ± 0.062 | 2.22 ± 0.085 | 2.54 ± 0.058 | 2.37 ± 0.064
3 | DTRITPSKVSKIDSHVV [PRE6] | 2.76 ± 0.078 | 3.09 ± 0.064 | 2.46 ± 0.14 | 2.72 ± 0.063
4 | IVQELLDKNLIKLVKQN [RPC34] | 1.97 ± 0.057 | 1.99 ± 0.058 | 2.62 ± 0.068 | 2.57 ± 0.052
5 | TVIKFRAGVCEYNEDSR [RPN13] | 2.26 ± 0.12 | 1.96 ± 0.071 | 1.8 ± 0.13 | 2.77 ± 0.07
6 | VLQPLLPRELPKLLDAL [SNU114] | 2.15 ± 0.072 | 2.2 ± 0.11 | 2.73 ± 0.11 | 2.6 ± 0.096
7 | KVDGKVRTDTTYPAGFM [RPS4A] | 3.41 ± 0.13 | 3.18 ± 0.13 | 2.97 ± 0.073 | 3.15 ± 0.11
8 | VMRNTYNTRKNAVTAAA [GAL11] | 1.78 ± 0.045 | 1.94 ± 0.051 | 2.11 ± 0.07 | 1.97 ± 0.036
9 | KSEEVKAEDDTGEEEED [RPC37] |  |  |  | 2.95 ± 0.19
10 | HNGWVTSLATSAGQPNL [ASC1] | 2.32 ± 0.044 | 2.04 ± 0.049 | 2.09 ± 0.08 | 2.12 ± 0.052
11 | KYSDILLKKATKPEVAS [CDC53] | 2.32 ± 0.097 | 2.23 ± 0.12 | 2.47 ± 0.15 | 2.47 ± 0.17
12 | PAFSFGAKPEEKKDDNS [YJL041W/NSP1] | 3.27 ± 0.16 | 3.26 ± 0.13 | 2.98 ± 0.24 | 3.29 ± 0.13
13 | GHRADVGGQFSKVQFDA [REC8] | 3.25 ± 0.085 | 3.45 ± 0.11 | 3.28 ± 0.059 | 3.23 ± 0.056
14 | LKRMEILKSPHLSKSPA [SIR4] | 2.96 ± 0.06 | 2.93 ± 0.066 | 2.95 ± 0.058 | 2.78 ± 0.045
15 | LLEKYNTNELKEVSSFL [MTR3] | 3.05 ± 0.054 | 2.76 ± 0.054 | 3.23 ± 0.046 | 3.1 ± 0.053
16 | LSEPLIKIGIRVMKSLS [YCG1] | 1.59 ± 0.066 | 1.98 ± 0.052 | 1.74 ± 0.066 | 1.73 ± 0.06
17 | TCPGLSLTDVAFFTYDA [ECM29] | 3.36 ± 0.14 | 3.05 ± 0.091 | 2.78 ± 0.072 | 3.11 ± 0.099
18 | LVRDSKPSKPFNVDDVL [MED8] | 2.48 ± 0.055 | 2.57 ± 0.044 | 2.46 ± 0.051 | 2.5 ± 0.047
19 | AMIDAGALEEITKDHKV [FAS2] |  | 2.99 ± 0.14 |  | 2.19 ± 0.2
20 | FQIPTNLDAAAAGTSQA [RPC10] | 2.44 ± 0.14 | 2.83 ± 0.09 | 2.65 ± 0.095 | 2.66 ± 0.085
21 | FPTDLEIFQLFTNPSVD [SWI1] | 2.59 ± 0.069 | 2.88 ± 0.078 | 2.67 ± 0.07 | 2.35 ± 0.056
22 | TNVSKQNDFLFSVGESL [ECM29] | 2.56 ± 0.055 | 2.92 ± 0.071 | 2.94 ± 0.1 | 2.46 ± 0.053
23 | LLDILVKGETRIQNRVK [PRP8] | 3.38 ± 0.14 | 2.98 ± 0.097 | 3.49 ± 0.096 | 2.94 ± 0.068
24 | KYLYLRAVGGEVGASAA [RPL12A] | 1.66 ± 0.18 | 1.99 ± 0.13 | 1.64 ± 0.13 | 2.11 ± 0.1
25 | TIITDCAFLLTKIKDAE [YJL039C/NUP192] | 2.52 ± 0.071 | 2.78 ± 0.077 | 2.06 ± 0.13 | 2.52 ± 0.07
26 | HRLTLEDPVTVEYLTRY [PRE6] | 3.33 ± 0.19 | 3.64 ± 0.24 | 3.01 ± 0.19 | 2.68 ± 0.22
27 | SQVVETHKVTDIYSHEY [YMR129W/POM152] | 2.75 ± 0.083 | 2.77 ± 0.089 | 2.68 ± 0.073 | 2.83 ± 0.15
28 | EWDLYPQGFSSVERGRK [REC8] | 3.41 ± 0.13 | 3.54 ± 0.14 | 3.44 ± 0.086 | 3.48 ± 0.12

Row | Sequence | protein stability index (doa10∆) | protein stability index (pdr5∆) | protein stability index (san1∆) | protein stability index (ubr1∆)
29 | KDNVEHLVMRAISLGLL [RPN9] | 2.43 ± 0.075 | 2.92 ± 0.074 | 2.48 ± 0.071 | 2.76 ± 0.059
30 | VKEIVLPLFYDLLNAAS [IRR1] | 2.36 ± 0.045 | 2.48 ± 0.052 | 2.78 ± 0.036 | 2.69 ± 0.049
31 | AVVGQQIISGNRVPDGF [RPO31] |  | 3.28 ± 0.28 | 2.88 ± 0.2 | 2.65 ± 0.13
32 | KILMYQYNIPPEREVLV [RRP6] | 1.78 ± 0.075 | 2.04 ± 0.077 | 1.77 ± 0.2 | 1.72 ± 0.087
33 | ELTDKLSALNSEISSLK [SMC1] | 3.15 ± 0.11 | 2.76 ± 0.094 | 3.02 ± 0.074 | 2.89 ± 0.076
34 | VLAQYHEAKERIRQKEV [SNF6] |  |  |  | 3.4 ± 0.18
35 | KPLKKGSADIGASVISL [SIR4] | 3.09 ± 0.068 | 3.14 ± 0.055 | 3.05 ± 0.038 | 3.06 ± 0.04
36 | VANSTKAAFIRVNGSEF [RPT3] | 1.92 ± 0.05 | 1.69 ± 0.044 | 1.66 ± 0.082 | 1.44 ± 0.034
37 | DLSADKPTSPFIDSICK [SRB8] | 2.12 ± 0.034 | 1.88 ± 0.039 | 1.76 ± 0.048 | 1.93 ± 0.032
38 | ERKLKFSNRFLPVASPF [FAS1] | 3.02 ± 0.12 | 3.16 ± 0.11 | 2.91 ± 0.094 | 2.85 ± 0.099
39 | ASKLAAYNKKSTISARE [HTB1] | 3.22 ± 0.12 |  |  | 3.21 ± 0.11
40 | ANVNASAMPAPYMPYYY [DSN1] | 2.76 ± 0.06 | 2.88 ± 0.077 | 2.79 ± 0.059 | 2.65 ± 0.055
41 | STQELQTRAKLLDNEIR [RPT5] | 3.2 ± 0.15 | 3.05 ± 0.085 | 3.03 ± 0.083 | 2.98 ± 0.044
42 | IGDVDGLIVNPVKVSGT [POP5] | 2.73 ± 0.048 | 3.02 ± 0.046 | 2.66 ± 0.035 | 2.64 ± 0.035
43 | ITKDHKVLARQQLQVLA [FAS2] | 1.29 ± 0.044 | 1.45 ± 0.062 | 1.82 ± 0.099 | 1.3 ± 0.047
44 | PALVGKLRGDLREAPAD [SNF6] | 3.19 ± 0.21 | 3.12 ± 0.19 | 2.24 ± 0.19 | 2.5 ± 0.17
45 | TIFNLPKNKLVPTLEAK [FAS1] | 2.27 ± 0.059 | 2.34 ± 0.081 | 3.08 ± 0.051 | 3.01 ± 0.061
46 | LRAIEKNDDNSCRNPEH [YIL149C/MLP2] | 3.19 ± 0.16 | 3.25 ± 0.088 | 3.27 ± 0.13 | 3.15 ± 0.14
47 | KRIKPNTEITQKSSKEN [ECM29] | 2.81 ± 0.081 | 2.9 ± 0.074 | 2.98 ± 0.067 | 3.14 ± 0.056
48 | DFVRKGGLQKGKLVVSQ [SIR3] | 3.14 ± 0.079 | 3.22 ± 0.091 | 2.75 ± 0.055 | 3.35 ± 0.077
49 | LNSTLESLYDLIEFQPS [MED6] | 2.8 ± 0.049 | 2.85 ± 0.046 | 2.88 ± 0.039 | 2.76 ± 0.048
50 | ESWFKALAGSEINWRHA [FAS1] | 3.31 ± 0.11 | 2.54 ± 0.081 | 2.63 ± 0.083 | 2.59 ± 0.057
51 | QQQLYGGNNNNNSTGIA [SWI1] | 3.12 ± 0.076 | 3.15 ± 0.066 | 3.25 ± 0.053 | 3.11 ± 0.045
52 | IKIVSDKKVLVKVQPEG [RPT6] | 2.75 ± 0.1 | 2.83 ± 0.09 | 2.85 ± 0.12 | 2.74 ± 0.07
53 | IQFLTIGAGVPSLEVAS [FAS1] | 1.18 ± 0.037 | 1.24 ± 0.056 | 1.2 ± 0.079 | 1.11 ± 0.039
54 | GAKPEEKKDDNSSKPAF [YJL041W/NSP1] | 3.29 ± 0.12 | 3.38 ± 0.14 | 2.87 ± 0.082 | 2.86 ± 0.078
55 | QKSPKIRDPLTQTGLLQ [RPC82] | 1.81 ± 0.069 | 1.74 ± 0.041 | 2.02 ± 0.12 | 1.91 ± 0.046
